Assay results reported in PMC8392014.

Molecular target: RSV phosphoprotein fragment P_(127–163) (respiratory syncytial virus (RSV)) (UniProt P12579)
Experiment: SAXS; SEC-SAXS, 293 K, 200 µM P127-163 in 20 mM Na phosphate pH 6.5, 100 mM NaCl; scattering curve fitted with the NMR structure on the FoXs server

Substance: RSV phosphoprotein fragment P_(127–163) (from UniProt P12579 127-163) (domain or fragment)
- stoichiometry N: 4
